Tests used:
[1] = target: T1, TOLLIP (Homo sapiens, UniProt Q9H0E2); assay: lipid-protein overlay; liposome co-sedimentation; assay type: binding; settings: without TOM1; overlay: PtdIns3P on PVDF, 60 nM GST-TOLLIP, pH 8.0, 4 C; sedimentation: 2.5 uM TOLLIP, DOPC/DOPE liposomes with 3% PtdIns3P
T1 construct: human TOLLIP cDNA in pGEX6P1, expressed in E. coli Rosetta; GST-TOLLIP in the lipid overlay, TOLLIP in liposome co-sedimentation

[2] = target: GST; assay: cross-linking; glutaraldehyde dilution series (0.01-1%), 5 min at 37°C; SDS-PAGE
[3] = target: GST; assay: cross-linking; BS3 (0.25-5 mM), 30 min at room temperature; TOLLIP and TOM1 preincubated for 30 min before BS3; SDS-PAGE
[4] = target: T2, TOM1 G307D, MYC-BirA fusion (BioID bait) (UniProt O60784 1-492, G307D); assay: proximity labelling; BioID with mass spectrometry; Flp-In T-REx 293 cells induced with 2 µg/ml doxycycline and 50 µM biotin for 24 h; Strep-Tactin sepharose; three biological replicates; settings: partners not purified
T2 construct: also called TOM1 G307D variant; source: inducible Flp-In T-REx 293 cell line, induced with doxycycline and biotin, in cells

CCCCCCCCCCCCCCCC(=O)OC[C@H](COP(=O)(O)O[C@@H]1[C@H](O)[C@H](OP(=O)(O)O)[C@@H](O)[C@H](O)[C@H]1O)OC(=O)CCCCCCCCCCCCCCC [dipalmitoyl PtdIns3P]
lipid-protein overlay; liposome co-sedimentation [1]: As expected, TOM1 WT significantly reduced TOLLIP binding to PtdIns3P (Fig. 2B).

GST (natural protein)
stoichiometry N [2]: 2
stoichiometry N [3]: 2

B1: myosin VI (natural protein, human (endogenous in Flp-In T-REx 293), UniProt Q9UM54 1-1294, looked up)
chain: MEDGKPVWAPHPTDGFQMGNIVDIGPDSLTIEPLNQKGKTFLALINQVFPAEEDSKKDVEDNCSLMYLNEATLLHNIKVRYSKDRIYTYVANILIAVNPYFDIPKIYSSEAIKSYQGKSLGTRPPHVFAIADKAFRDMKVLKMSQSIIVSGESGAGKTENTKFVLRYLTESYGTGQDIDDRIVEANPLLEAFGNAKTVRNNNSSRFGKFVEIHFNEKSSVVGGFVSHYLLEKSRICVQGKEERNYHIFYRLCAGASEDIREKLHLSSPDNFRYLNRGCTRYFANKETDKQILQNRKSPEYLKAGSMKDPLLDDHGDFIRMCTAMKKIGLDDEEKLDLFRVVAGVLHLGNIDFEEAGSTSGGCNLKNKSAQSLEYCAELLGLDQDDLRVSLTTRVMLTTAGGTKGTVIKVPLKVEQANNARDALAKTVYSHLFDHVVNRVNQCFPFETSSYFIGVLDIAGFEYFEHNSFEQFCINYCNEKLQQFFNERILKEEQELYQKEGLGVNEVHYVDNQDCIDLIEAKLVGILDILDEENRLPQPSDQHFTSAVHQKHKDHFRLTIPRKSKLAVHRNIRDDEGFIIRHFAGAVCYETTQFVEKNNDALHMSLESLICESRDKFIRELFESSTNNNKDTKQKAGKLSFISVGNKFKTQLNLLLDKLRSTGASFIRCIKPNLKMTSHHFEGAQILSQLQCSGMVSVLDLMQGGYPSRASFHELYNMYKKYMPDKLARLDPRLFCKALFKALGLNENDYKFGLTKVFFRPGKFAEFDQIMKSDPDHLAELVKRVNHWLTCSRWKKVQWCSLSVIKLKNKIKYRAEACIKMQKTIRMWLCKRRHKPRIDGLVKVGTLKKRLDKFNEVVSVLKDGKPEMNKQIKNLEISIDTLMAKIKSTMMTQEQIQKEYDALVKSSEELLSALQKKKQQEEEAERLRRIQEEMEKERKRREEDEKRRRKEEEERRMKLEMEAKRKQEEEERKKREDDEKRIQAEVEAQLARQKEEESQQQAVLEQERRDRELALRIAQSEAELISDEAQADLALRRSLDSYPVSKNDGTRPKMTPEQMAKEMSEFLSRGPAVLATKAAAGTKKYDLSKWKYAELRDTINTSCDIELLAACREEFHRRLKVYHAWKSKNKKRNTETEQRAPKSVTDYDFAPFLNNSPQQNPAAQIPARQREIEMNRQQRFFRIPFIRPADQYKDPQSKKKGWWYAHFDGPWIARQMELHPDKPPILLVAGKDDMEMCELNLEETGLTRKRGAEILPRQFEEIWERCGGIQYLQNAIESRQARPTYATAMLQSLLK
notes: myosin VI, endogenous protein found by proximity labeling mass spectrometry; source: endogenous, Flp-In T-REx 293 cells
interaction relative to that of TOM1 WT with myosin VI [4]: 69%

From paper PMC12519566, “A TOM1 variant impairs interaction with TOLLIP, autophagosome-lysosome fusion and regulation of innate immunity” (Disease Models & Mechanisms, 2025)
